Reference: patent US20180016354A1 (Merck KGaA, published 2018)

B1: domain-exchanged heterodimeric bispecific antibody 1, BsAb1 (anti-CD3× anti-EGFR CH3-KiH) (bispecific antibody, human IgG1, kappa)
heavy 1: QVQLVQSGAEVKKPGASVKVSCKASGYTFTSHWMHWVRQAPGQGLEWIGEFNPSNGRTNYNEKFKSKATMTVDTSTNTAYMELSSLRSEDTAVYYCASRDYDYDGRYFDYWGQGTLVTVSSASTKGEPQVYTLPPSRDELTKNQVSLYCLVKGFYPSDIAVEWESNGQPENNYKTTPPVLDSDGSFFLYSKLTVDKSRWQQGNVFSCSVMHEALHNHYTQKSLSLSKSCDKTHTCPPCPAPELLGGPSVFLFPPKPKDTLMISRTPEVTCVVVDVSHEDPEVKFNWYVDGVEVHNAKTKPREEQYNSTYRVVSVLTVLHQDWLNGKEYKCKVSNKALPAPIEKTISKAKGQPFRPEVHLLPPSREEMTKNQVSLTCLARGFYPKDIAVEWESNGQPENNYKTTPSRQEPSQGTTTFAVTSKLTVDKSRWQQGNVFSCSVMHEALHNHYTQKTISLSPGK
heavy 2: QVQLVQSGGGVVQPGRSLRLSCKASGYTFTRYTMHWVRQAPGKGLEWIGYINPSRGYTNYNQKVKDRFTISRDNSKNTAFLQMDSLRPEDTGVYFCARYYDDHYCLDYWGQGTPVTVSSASTKGPSVFPLAPSSKSTSGGTAALGCLVKDYFPEPVTVSWNSGALTSGVHTFPAVLQSSGLYSLSSVVTVPSSSLGTQTYICNVNHKPSNTKVDKKVEPKSCDKTHTCPPCPAPELLGGPSVFLFPPKPKDTLMISRTPEVTCVVVDVSHEDPEVKFNWYVDGVEVHNAKTKPREEQYNSTYRVVSVLTVLHQDWLNGKEYKCKVSNKALPAPIEKTISKAKGQPREPQVYTLPPPSEELALNELVTLTCLVKGFYPSDIAVEWLQGSQELPREKYLTWAPVLDSDGSFFLYSILRVAAEDWKKGDTFSCSVMHEALHNHYTQKSLDRSPGK
light 1: DIQMTQSPSSLSASVGDRVTITCSASSSVTYMYWYQQKPGKAPKLLIYDTSNLASGVPSRFSGSGSGTDYTFTISSLQPEDIATYYCQQWSSHIFTFGQGTKVEIKRTVAEPQVYTLPPSRDELTKNQVSLTCLVKGFYPSDIAVEWESNGQPENNYKTTPPVLDSDGSFFLTSKLTVDKSRWQQGNVFSCSVMHEALHNHYTQKSLSLSGEC
light 2: DIQMTQSPSSLSASVGDRVTITCSASSSVSYMNWYQQTPGKAPKRWIYDTSKLASGVPSRFSGSGSGTDYTFTISSLQPEDIATYYCQQWSSNPFTFGQGTKLQITRTVAAPSVFIFPPSDEQLKSGTASVVCLLNNFYPREAKVQWKVDNALQSGNSQESVTEQDSKDSTYSLSSTLTLSKADYEKHKVYACEVTHQGLSSPVTKSFNRGEC
notes: hu425 (Matuzumab) Fv in the CH3 domain-exchanged Fab arm, OKT3 Fv in the native Fab arm; SEED AG/GA Fc; also called domain-exchanged heterodimeric antibody 1; domain-exchanged bispecific antibody 1
B2: One-armed Effector Negative (EN) domain-exchanged anti-EGFR antibody (antibody)
heavy: QVQLVQSGAEVKKPGASVKVSCKASGYTFTSHWMHWVRQAPGQGLEWIGEFNPSNGRTNYNEKFKSKATMTVDTSTNTAYMELSSLRSEDTAVYYCASRDYDYDGRYFDYWGQGTLVTVSSASTKGEPQVYTLPPSRDELTKNQVSLYCLVKGFYPSDIAVEWESNGQPENNYKTTPPVLDSDGSFFLYSKLTVDKSRWQQGNVFSCSVMHEALHNHYTQKSLSLSKSCDKTHTCPPCPAPPVAGPSVFLFPPKPKDTLMISRTPEVTCVVVDVSHEDPEVQFNWYVDGVEVHNAKTKPREEQAQSTFRVVSVLTVVHQDWLNGKEYKCKVSNKGLPAPIEKTISKTKGQPFRPEVHLLPPSREEMTKNQVSLTCLARGFYPKDIAVEWESNGQPENNYKTTPSRQEPSQGTTTFAVTSKLTVDKSRWQQGNVFSCSVMHEALHNHYTQKTISLSPGK
chain: EPKSSDKTHTCPPCPAPPVAGPSVFLFPPKPKDTLMISRTPEVTCVVVDVSHEDPEVQFNWYVDGVEVHNAKTKPREEQAQSTFRVVSVLTVVHQDWLNGKEYKCKVSNKGLPAPIEKTISKTKGQPREPQVYTLPPPSEELALNELVTLTCLVKGFYPSDIAVEWLQGSQELPREKYLTWAPVLDSDGSFFLYSILRVAAEDWKKGDTFSCSVMHEALHNHYTQKSLDRSPGK
light: B1 light 1
notes: One Fab arm only; effector negative Fc (modified IgG2 CH2 F296A, N297Q); also called one-armed domain-exchanged EN anti-EGFR antibody; one-armed effector negative anti-EGFR antibody

Experiments:
[1] = target: T1, EGFR (on EGFR-expressing A431 cells) (UniProt P00533 25-1210, limits assumed); assay: flow cytometry on A431 cells
T1 construct: whole, on cells; A431 is a human cell line; also called EGFR-positive cells; EGFR-overexpressing A431 cells

[2] = target: T1, EGFR (on EGFR-expressing A431 cells); assay: cell-based or functional assay
[3] = target: CD3 (on activated primary T cells) (UniProt P07766 23-207); assay: cell-based or functional assay
[4] = target: T2, CD16a receptor (FcγIIIa) (UniProt P08637 17-254, limits assumed); assay: CD16a HTRF cellular binding assay (CisBio), competition with labeled human IgG
T2 construct: whole, on cells
Method: FIG. 14: Binding of antibodies to CD16a receptor. Binding was measured using CD16a HTRF cellular binding assay (CisBio). Measurement was performed in duplicates.

T2 sequence (P08637 17-254 limits assumed): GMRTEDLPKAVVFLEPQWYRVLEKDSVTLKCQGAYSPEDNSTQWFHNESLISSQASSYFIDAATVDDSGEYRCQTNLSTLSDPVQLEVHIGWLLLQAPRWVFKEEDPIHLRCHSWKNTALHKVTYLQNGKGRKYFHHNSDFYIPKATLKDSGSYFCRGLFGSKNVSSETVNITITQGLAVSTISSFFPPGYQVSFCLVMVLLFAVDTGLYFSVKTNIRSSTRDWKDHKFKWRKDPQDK

Binder | EC50 [1] [nM] | EC50 of redirected lysis of A431 cells by activated T cells (LDH release) [2] [nM] | EC50 of redirected lysis of A431 cells by activated T cells (LDH release) [3] [nM] | binding result [4]
B1 | ~7 | 0.1 to 0.3 | 0.1 to 0.3 | –
B2 | – | – | – | no binding
